Assay results published in the supplement of paper PMC10567573.

B1: FAM189A2 (parent)
chain: GSEAAVIPLDLGCTQVTQDGDIPN
B2: TOR1AIP2 (parent)
chain: SPGHSSAGQEGEDTLRRRLLAPEA

Variants of: B1
Assay: protein stability index of a GFP-peptide fusion (GPS, HEK-293T) (PSI 1-6); higher = more stable
Conditions: c terminus: a fixed tail appended
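Also: lentivirally expressed fusions sorted by FACS into six bins by GFP to DsRed ratio, PSI derived from sequencing read proportions per bin multiplied by bin number.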

Protein stability index of substitutions, site by site:
G20: I 5.29
P23: S 5.3
G12: Q 5.44 | C 4.6
G1: Q 5.44
L11: G 5.6 | T 5.44
P8: H 4.74 | S 4.46
L9: M 5.6
Q18: H 5.22 | G 5.49
I22: H 5.37
T17: I 4.75
C13: K 5.18
D21: V 4.94 | R 4.69
T14: N 5.31
N24: F 4.53
I7: H 5.23 | E 5.78 | S 5.58
A5: I 3.79
D19: R 4.57 | L 4.78 | A 5.36
S2: M 4.89

Variants of: B2
Assay: as above
Conditions: c terminus: a fixed tail appended

Protein stability index of substitutions, site by site:
S5: M 4.49 | I 3.78 | D 4.75 | W 4.63 | F 4 | K 3.86 | Y 4.09 | E 4.64 | N 4.42 | R 4 | C 3.37 | T 4.46 | A 3.84 | V 4.3 | G 4.11 | L 3.9 | H 4.35 | Q 4.64 | P 4.14
A7: W 3.89 | F 4.16 | R 3.82 | S 4.01 | T 4.18 | D 4.56 | C 3.45 | I 3.92 | K 3.66 | N 3.76 | Y 3.9 | G 4.21 | E 4.47 | M 3.79 | H 3.77 | V 4.25 | Q 4.24 | L 3.73 | P 3.42
S6: F 2.94 | P 4.26 | W 3.97 | G 3.66 | R 4.46 | E 4.51 | A 4.36 | V 3.24 | K 3.97 | Y 3.73 | D 4.48 | N 3.75 | L 4.18 | I 3.42 | T 4.36 | H 4.23 | M 4.02 | Q 4.65 | C 3.9
G3: P 4.69 | Y 3.83 | L 3.78 | A 3.74 | M 4.48 | I 3.51 | H 4.21 | K 3.67 | R 2.93 | T 3.59 | F 3.85 | D 4.73 | C 3.32 | Q 4.46 | N 4.16 | E 4.65 | V 3.24 | W 4.3 | S 4.02
H4: P 4.49 | V 3.81 | S 4.39 | Q 3.82 | D 4.89 | C 3.71 | L 3.85 | R 3.76 | I 3.92 | K 3.52 | F 4.3 | E 4.15 | W 3.98 | N 4.13 | G 4.08 | Y 3.84 | T 4.14 | A 4.22 | M 3.38
S1: T 4.88 | W 4.53 | K 4.47 | C 3.46 | V 4.59 | M 4.49 | L 4.91 | A 5.07 | Q 4.02 | D 5.21 | R 4.05 | F 2.59 | I 4.92 | H 4.57 | G 3.81 | N 3.13 | P 5.3 | Y 2.21 | E 5.47
G8: D 4.51 | E 4.5 | C 4.46 | A 4.24 | I 4.53 | H 4.69 | F 3.34
P2: C 2.03 | Y 2.24 | K 4.44 | S 3.93 | F 2.53 | W 2.65 | D 4.86 | H 4.2 | V 2.75 | Q 4.47 | T 3.23 | I 2.5 | R 4.47 | M 3.75 | G 4.22 | L 2.43 | E 4.43 | A 2.22 | N 4.42
